This passage reports ratio to parent results from paper PMC6959358.

Holding throughout (test): co-immunoprecipitation (DYK-antibody beads) with immunoblot quantification
The target of one test is tropomyosin (UniProt P09493). The following applies: TnT-DYK expressed in HEK cells, immobilized on DYK-antibody beads, incubated with healthy control iPSC-CM lysate; n = 5; DYK negative control subtracted …; parent: est. 1.0; read off a plot.
In another test the target is troponin C (UniProt P63316). Particulars: TnT-DYK expressed in HEK cells, immobilized on DYK-antibody beads, incubated with healthy control iPSC-CM lysate; n = 6; DYK negative control subtracted …; parent: est. 1.0; read off a plot.
The next test concerns the target troponin I (UniProt P19429). Particulars: TnT-DYK expressed in HEK cells, immobilized on DYK-antibody beads, incubated with healthy control iPSC-CM lysate; n = 5; DYK negative control subtracted …; parent: est. 1.0; read off a plot.
A further test concerns the target PKA. The following applies: TnT-DYK expressed in HEK cells, immobilized on DYK-antibody beads, incubated with healthy control iPSC-CM lysate; n = 4; DYK negative control subtracted …; parent: est. 1.0; read off a plot.

UniProt P09493, sequence (P09493 whole entry): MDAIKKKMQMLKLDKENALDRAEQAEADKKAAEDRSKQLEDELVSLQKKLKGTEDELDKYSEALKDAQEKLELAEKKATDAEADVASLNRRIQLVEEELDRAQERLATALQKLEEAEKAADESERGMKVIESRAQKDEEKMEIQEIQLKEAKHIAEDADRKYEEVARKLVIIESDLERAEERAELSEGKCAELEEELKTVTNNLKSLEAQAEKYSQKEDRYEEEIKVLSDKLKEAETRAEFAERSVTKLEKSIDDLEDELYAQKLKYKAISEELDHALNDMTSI
UniProt P19429, sequence (P19429 whole entry): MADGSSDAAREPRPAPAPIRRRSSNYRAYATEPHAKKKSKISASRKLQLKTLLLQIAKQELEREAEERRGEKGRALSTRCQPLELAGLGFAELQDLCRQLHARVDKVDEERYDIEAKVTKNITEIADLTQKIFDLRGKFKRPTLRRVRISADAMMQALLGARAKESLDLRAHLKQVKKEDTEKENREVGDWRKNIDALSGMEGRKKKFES

Regarding “TnT-WT-DYK (human cardiac troponin T, wild type, flag (DYK)-tagged) R173W”, the ratio to parent with tropomyosin came out at 0.57; in the test with troponin C it was 0.78; in the test with troponin I, 0.73; in the test with PKA it was 0.42.
